# What was measured:
# Experiment in all cases: purified protein
# Details in all cases: 20 mM Tris-HCl, pH 7.5, 22 °C, 0.025-0.2 mM ac4C
# [1] = substrate: CC(=O)Nc1ccn([C@@H]2O[C@H](CO)[C@@H](O)[C@H]2O)c(=O)n1; assay type: biochemical, Shewanella loihica
# [2] = substrate: CC(=O)Nc1ccn([C@@H]2O[C@H](CO)[C@@H](O)[C@H]2O)c(=O)n1; assay type: biochemical, Buttiauxella agrestis
# [3] = substrate: CC(=O)Nc1ccn([C@@H]2O[C@H](CO)[C@@H](O)[C@H]2O)c(=O)n1
protein,measurement,setting,value
"SloYqfB (Shewanella loihica PV-4) (protein, pLATE31 expression vector, E. coli HMS174 ΔpyrF ΔyqfB host) MTPLTYDGKITFFERFEADILSGAKTITLRDESESHFRVGDRLSVSTFETGRHFCDIQVVRVEELAFEALNSRHAVQENMTLEQLKAVITEIYGEIDTLYLIEYRLL",Km,[1],(1 ± 0.2) × 10^-4 M
same,kcat,[1],441 ± 37 s⁻¹
same,kcat/Km,[1],4.3e+06 ± 500000 M⁻¹ s⁻¹
"BagYqfB (Buttiauxella agrestis ATCC 33320) (protein, 109 a.a; pLATE31 expression vector, E. coli HMS174 ΔpyrF ΔyqfB host) MNDITFFQRFESDIVAGRKTITLRDVSESHFIPGQQLRVGRYEDDVYFCTIEVVSVTPVALEKLTDEHARQENMTLPELKEVIGEIYPGLTELYAIVFRLLTKSDKRVL",Km,[2],(3.6 ± 0.8) × 10^-5 M
same,kcat,[2],154 ± 11 s⁻¹
same,kcat/Km,[2],4.3e+06 ± 700000 M⁻¹ s⁻¹
KpnYqfB (Klebsiella pneumoniae subsp. pneumoniae MGH 78578) (protein) MQANDITFFQRFQDDILAGRKTITIRDAAESHFKPGDVLRVGRYEDDGYFCTIAVTATSTVTLDTLTEQHAQQENMTLGQLRQVISDIYPGESQFYVIEFKTL,Km,[3],(4.6 ± 0.8) × 10^-5 M
same,kcat,[3],216 ± 2 s⁻¹
same,kcat/Km,[3],4.8e+06 ± 800000 M⁻¹ s⁻¹

# Reference: paper PMC9599836, “Comparative Analysis of Mesophilic YqfB-Type Amidohydrolases” (Biomolecules, 2022)
